Source: paper PMC8234031, “Modular Assembly of Phosphite Dehydrogenase and Phenylacetone Monooxygenase for Tuning Cofactor Regeneration” (Biomolecules, 2021)

How the values were obtained:
[1] = molecular target: PTDHI (phosphite dehydrogenase with a C-terminal RIDD tag)
[2] = molecular target: PTDHA2 (phosphite dehydrogenase with a C-terminal RIAD–RIAD tag); assay: SEC; each purified tagged protein alone, in the absence of any other tagged protein; Superdex 200 (10/300), 50 mM Tris–HCl with 150 mM NaCl, pH 7.5
[3] = molecular target: PTDHA (phosphite dehydrogenase with a C-terminal RIAD tag); assay: as above

conversion of 5.0 mM bicyclo[3.2.0]hept-2-en-6-one after 24 h by the mixture of the two tagged enzymes [1] [%]	Substance	also measured
78	PAMOA2 (phenylacetone monooxygenase with a C-terminal RIAD–RIAD tag) (enzyme)	
78	PAMOA (phenylacetone monooxygenase with a C-terminal RIAD tag) (enzyme)	
	PTDHA2 (phosphite dehydrogenase with a C-terminal RIAD–RIAD tag) (enzyme)	stoichiometry N [2]: 2
	PTDHA (phosphite dehydrogenase with a C-terminal RIAD tag) (enzyme)	stoichiometry N [3]: 2
